Columns and labels:
c-Abl (mouse) = assay: phosphorylation enrichment, bacterial display (enrichment ratio); higher = better substrate or ligand; peptides without Tyr show the background
FGFR1 = FGFR1 (UniProt P11362); assay: as above
Fes = Fes (UniProt P07332); assay: as above
EPHB2 = EPHB2 (UniProt P29323); assay: as above
EPHB1 = EPHB1 (UniProt P54762); assay: as above
Jak2 = Jak2 (UniProt O60674); assay: as above
MERTK = MERTK (UniProt Q12866); assay: as above
Fer (mouse) = assay: as above
c-Src = assay: as above
Hck = Hck (UniProt P08631); assay: as above
Hck, sequence (P08631 whole entry, looked up): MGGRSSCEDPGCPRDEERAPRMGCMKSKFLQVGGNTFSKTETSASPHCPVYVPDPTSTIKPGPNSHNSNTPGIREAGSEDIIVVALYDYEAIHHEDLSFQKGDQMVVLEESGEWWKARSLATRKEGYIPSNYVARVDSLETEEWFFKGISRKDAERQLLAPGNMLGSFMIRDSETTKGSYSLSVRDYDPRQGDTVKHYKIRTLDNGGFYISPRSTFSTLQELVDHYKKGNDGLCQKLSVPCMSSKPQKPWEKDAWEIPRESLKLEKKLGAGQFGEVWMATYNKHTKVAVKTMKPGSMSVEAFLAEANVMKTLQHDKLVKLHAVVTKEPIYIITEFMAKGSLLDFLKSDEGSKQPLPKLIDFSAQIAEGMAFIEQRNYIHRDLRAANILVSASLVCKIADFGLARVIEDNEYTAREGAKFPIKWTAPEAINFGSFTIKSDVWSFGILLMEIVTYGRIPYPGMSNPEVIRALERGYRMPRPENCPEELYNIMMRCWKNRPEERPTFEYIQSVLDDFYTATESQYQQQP

AncSZ = assay: as above
Fyn = Fyn (UniProt P06241); assay: as above
FGFR3 = FGFR3 (UniProt P22607); assay: as above
FGFR3, sequence (P22607 whole entry, looked up): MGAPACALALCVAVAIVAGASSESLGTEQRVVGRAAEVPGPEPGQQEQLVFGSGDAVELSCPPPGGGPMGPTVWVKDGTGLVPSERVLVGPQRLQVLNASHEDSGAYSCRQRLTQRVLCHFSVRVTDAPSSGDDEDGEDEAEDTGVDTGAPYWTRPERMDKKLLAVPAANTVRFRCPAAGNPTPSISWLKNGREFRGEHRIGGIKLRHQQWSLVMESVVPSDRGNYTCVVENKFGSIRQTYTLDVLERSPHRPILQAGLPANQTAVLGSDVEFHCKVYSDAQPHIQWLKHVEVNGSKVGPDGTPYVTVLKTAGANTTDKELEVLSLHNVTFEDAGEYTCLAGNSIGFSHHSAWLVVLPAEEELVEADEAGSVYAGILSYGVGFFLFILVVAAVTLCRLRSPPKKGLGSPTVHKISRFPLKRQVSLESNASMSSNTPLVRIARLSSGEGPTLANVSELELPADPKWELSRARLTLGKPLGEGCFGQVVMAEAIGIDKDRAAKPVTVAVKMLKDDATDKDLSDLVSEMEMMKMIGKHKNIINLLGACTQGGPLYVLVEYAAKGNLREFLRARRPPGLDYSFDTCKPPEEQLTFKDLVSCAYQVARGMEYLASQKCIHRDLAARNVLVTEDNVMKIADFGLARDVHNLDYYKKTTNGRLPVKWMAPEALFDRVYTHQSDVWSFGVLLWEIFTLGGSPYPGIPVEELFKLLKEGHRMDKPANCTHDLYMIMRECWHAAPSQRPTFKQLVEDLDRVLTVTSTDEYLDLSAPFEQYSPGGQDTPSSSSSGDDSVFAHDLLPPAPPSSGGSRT

c-Src SH2 = assay: SH2 binding enrichment of the phosphorylated peptide, bacterial display (enrichment ratio); higher = better substrate or ligand; peptides without Tyr show the background
SHP2-C SH2 = assay: as above
Grb2 SH2 = Grb2 SH2 (UniProt P62993); assay: as above
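Throughout, for SH2 binding enrichment of the phosphorylated peptide, bacterial display: peptide library displayed on the E. coli surface as eCPX fusions, selected cells deep-sequenced, score is each peptide's frequency after selection divided by its frequency in the input.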
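Throughout, for phosphorylation enrichment, bacterial display: 11-residue human phosphosite peptides and single-mutation variants displayed on the E. coli surface, counted by deep sequencing, each peptide's frequency after selection divided by its frequency in the unselected input library; frequency after pTyr selection over input frequency; kinase dosed for 20-30% of maximal phosphorylation in three min.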

EPHB1, sequence (P54762 whole entry, looked up): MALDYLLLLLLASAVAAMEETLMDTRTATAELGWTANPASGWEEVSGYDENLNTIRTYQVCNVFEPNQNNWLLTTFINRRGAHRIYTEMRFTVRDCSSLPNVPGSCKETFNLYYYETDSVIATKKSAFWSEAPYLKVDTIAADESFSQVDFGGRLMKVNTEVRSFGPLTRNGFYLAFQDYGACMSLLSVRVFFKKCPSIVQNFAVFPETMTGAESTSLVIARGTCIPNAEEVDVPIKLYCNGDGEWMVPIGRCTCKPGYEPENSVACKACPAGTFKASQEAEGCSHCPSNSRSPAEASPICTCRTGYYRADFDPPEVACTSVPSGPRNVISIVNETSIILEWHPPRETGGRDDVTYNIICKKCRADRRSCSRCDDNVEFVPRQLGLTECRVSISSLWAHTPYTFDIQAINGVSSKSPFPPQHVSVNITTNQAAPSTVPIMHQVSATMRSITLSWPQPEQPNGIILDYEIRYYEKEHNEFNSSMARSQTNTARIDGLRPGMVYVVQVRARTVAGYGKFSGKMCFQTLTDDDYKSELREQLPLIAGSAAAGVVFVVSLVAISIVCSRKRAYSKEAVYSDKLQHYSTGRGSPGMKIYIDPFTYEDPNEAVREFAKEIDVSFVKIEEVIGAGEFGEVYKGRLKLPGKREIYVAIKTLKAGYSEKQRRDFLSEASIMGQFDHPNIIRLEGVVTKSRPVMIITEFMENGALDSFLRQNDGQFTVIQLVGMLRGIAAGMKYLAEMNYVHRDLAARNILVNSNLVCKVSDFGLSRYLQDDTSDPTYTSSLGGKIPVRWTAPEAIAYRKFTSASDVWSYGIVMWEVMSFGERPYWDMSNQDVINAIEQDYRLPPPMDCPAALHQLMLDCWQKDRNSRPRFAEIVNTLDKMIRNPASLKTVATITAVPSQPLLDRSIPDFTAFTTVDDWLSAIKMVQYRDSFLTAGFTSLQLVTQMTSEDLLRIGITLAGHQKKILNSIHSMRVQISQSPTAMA
Fes, sequence (P07332 whole entry, looked up): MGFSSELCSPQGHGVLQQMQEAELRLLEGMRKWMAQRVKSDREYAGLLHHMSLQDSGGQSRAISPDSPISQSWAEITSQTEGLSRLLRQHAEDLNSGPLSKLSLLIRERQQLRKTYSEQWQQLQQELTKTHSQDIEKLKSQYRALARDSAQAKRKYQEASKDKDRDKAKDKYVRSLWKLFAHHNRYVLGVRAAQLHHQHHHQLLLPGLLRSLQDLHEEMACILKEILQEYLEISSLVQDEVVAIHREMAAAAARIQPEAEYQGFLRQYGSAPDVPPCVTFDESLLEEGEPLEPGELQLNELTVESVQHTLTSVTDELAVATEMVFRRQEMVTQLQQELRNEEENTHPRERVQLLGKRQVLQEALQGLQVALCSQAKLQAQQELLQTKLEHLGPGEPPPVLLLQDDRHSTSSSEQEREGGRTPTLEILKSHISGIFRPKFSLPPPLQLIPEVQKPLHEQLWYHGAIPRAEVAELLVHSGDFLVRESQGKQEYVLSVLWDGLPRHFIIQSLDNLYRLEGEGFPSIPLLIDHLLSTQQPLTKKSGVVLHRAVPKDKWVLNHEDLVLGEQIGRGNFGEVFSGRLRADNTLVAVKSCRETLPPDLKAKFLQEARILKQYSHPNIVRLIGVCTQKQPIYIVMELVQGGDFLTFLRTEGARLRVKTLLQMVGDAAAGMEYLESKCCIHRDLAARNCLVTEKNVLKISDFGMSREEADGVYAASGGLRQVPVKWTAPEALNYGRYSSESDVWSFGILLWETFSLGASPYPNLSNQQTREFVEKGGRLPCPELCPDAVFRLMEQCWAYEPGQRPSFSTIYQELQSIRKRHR
FGFR1, sequence (P11362 whole entry, looked up): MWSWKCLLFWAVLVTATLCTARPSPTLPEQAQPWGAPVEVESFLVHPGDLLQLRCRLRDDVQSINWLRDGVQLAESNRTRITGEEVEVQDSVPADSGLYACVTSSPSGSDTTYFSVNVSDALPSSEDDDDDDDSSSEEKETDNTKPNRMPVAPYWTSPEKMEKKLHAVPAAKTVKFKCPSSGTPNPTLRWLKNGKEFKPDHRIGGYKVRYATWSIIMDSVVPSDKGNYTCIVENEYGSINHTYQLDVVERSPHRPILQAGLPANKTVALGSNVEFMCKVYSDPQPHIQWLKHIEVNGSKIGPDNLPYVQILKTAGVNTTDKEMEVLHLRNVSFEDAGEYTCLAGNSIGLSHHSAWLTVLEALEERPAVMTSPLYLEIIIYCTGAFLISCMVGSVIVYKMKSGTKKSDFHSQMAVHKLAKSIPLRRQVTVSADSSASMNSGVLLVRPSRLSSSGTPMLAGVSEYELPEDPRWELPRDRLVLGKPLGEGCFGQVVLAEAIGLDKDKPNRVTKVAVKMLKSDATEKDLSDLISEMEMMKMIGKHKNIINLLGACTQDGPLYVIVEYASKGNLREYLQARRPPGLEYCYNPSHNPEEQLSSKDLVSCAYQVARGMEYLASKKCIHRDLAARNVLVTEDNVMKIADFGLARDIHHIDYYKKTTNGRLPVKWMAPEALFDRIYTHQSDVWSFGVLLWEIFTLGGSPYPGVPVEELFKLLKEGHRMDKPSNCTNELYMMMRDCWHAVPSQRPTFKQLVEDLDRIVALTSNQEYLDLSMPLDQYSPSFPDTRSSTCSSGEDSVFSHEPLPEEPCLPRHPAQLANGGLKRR
Jak2, sequence (O60674 whole entry, looked up): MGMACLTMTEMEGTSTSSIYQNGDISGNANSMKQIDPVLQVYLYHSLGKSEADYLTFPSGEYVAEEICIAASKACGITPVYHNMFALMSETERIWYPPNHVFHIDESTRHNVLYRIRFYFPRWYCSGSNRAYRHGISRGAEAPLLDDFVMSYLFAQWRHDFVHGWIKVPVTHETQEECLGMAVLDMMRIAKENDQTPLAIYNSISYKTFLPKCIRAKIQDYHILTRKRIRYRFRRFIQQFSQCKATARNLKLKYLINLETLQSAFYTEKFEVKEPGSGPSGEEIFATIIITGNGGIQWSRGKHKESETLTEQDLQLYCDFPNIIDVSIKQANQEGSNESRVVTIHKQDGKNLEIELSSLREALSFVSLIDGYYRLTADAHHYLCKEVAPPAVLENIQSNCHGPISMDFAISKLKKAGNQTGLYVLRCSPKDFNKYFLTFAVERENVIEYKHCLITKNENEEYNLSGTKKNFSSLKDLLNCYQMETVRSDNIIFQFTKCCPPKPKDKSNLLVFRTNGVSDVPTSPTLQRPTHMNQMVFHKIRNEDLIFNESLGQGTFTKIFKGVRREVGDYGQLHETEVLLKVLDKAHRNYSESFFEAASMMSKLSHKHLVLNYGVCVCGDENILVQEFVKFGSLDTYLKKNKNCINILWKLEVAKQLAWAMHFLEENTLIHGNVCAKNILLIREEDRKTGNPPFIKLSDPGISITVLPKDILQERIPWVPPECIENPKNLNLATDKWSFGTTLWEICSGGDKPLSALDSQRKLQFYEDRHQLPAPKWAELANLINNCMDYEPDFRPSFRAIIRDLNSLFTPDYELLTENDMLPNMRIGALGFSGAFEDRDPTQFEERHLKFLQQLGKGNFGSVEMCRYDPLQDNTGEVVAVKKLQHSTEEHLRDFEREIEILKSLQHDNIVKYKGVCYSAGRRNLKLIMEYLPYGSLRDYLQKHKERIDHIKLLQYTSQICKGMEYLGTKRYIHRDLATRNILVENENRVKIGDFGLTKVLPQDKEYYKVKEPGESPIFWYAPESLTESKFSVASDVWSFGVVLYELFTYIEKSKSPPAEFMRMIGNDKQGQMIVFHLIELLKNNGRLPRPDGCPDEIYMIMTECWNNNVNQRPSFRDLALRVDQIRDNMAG

SH2 binding enrichment (c-Src SH2) | SH2 binding enrichment (SHP2-C SH2) | SH2 binding enrichment (Grb2 SH2) | Sequence | phosphorylation enrichment (c-Abl (mouse)) | phosphorylation enrichment (FGFR1) | phosphorylation enrichment (Fes) | phosphorylation enrichment (EPHB2) | phosphorylation enrichment (EPHB1) | phosphorylation enrichment (Jak2) | phosphorylation enrichment (MERTK) | phosphorylation enrichment (Fer (mouse)) | phosphorylation enrichment (c-Src) | phosphorylation enrichment (Hck) | phosphorylation enrichment (AncSZ) | phosphorylation enrichment (Fyn) | phosphorylation enrichment (FGFR3)
0.753 | 1.03 | 0.941 | YRTPGYREVVI [TNS2_Y673_A670T] | 1.23 | 0.42 | 0.721 | 0.453 | 0.358 | 0.587 | 0.472 | 0.399 | 0.465 | 0.341 | 0.799 | 0.425 | 0.447
1.12 | 0.957 | 0.826 | YSNKLYYQLEQ [PDPR_Y109] | 0.82 | 8.28 | 1.09 | 2.11 | 3.14 | 1.76 | 6.24 | 0.81 | 3.28 | 2.27 | 1.43 | 2.08 | 7.22
2.46 | 0.908 | 0.874 | YSPCDYQPCLA [TNS1_Y798_Y796C] | 0.827 | 4.87 | 0.966 | 9.31 | 13.9 | 1.06 | 3.24 | 2.44 | 1.62 | 0.838 | 2.78 | 1.14 | 3.25

The remaining lines, values behind:

Sequence | SH2 binding enrichment (c-Src SH2) | SH2 binding enrichment (SHP2-C SH2) | SH2 binding enrichment (Grb2 SH2) | phosphorylation enrichment (c-Abl (mouse)) | phosphorylation enrichment (FGFR1) | phosphorylation enrichment (Fes) | phosphorylation enrichment (EPHB2) | phosphorylation enrichment (EPHB1) | phosphorylation enrichment (Jak2) | phosphorylation enrichment (MERTK) | phosphorylation enrichment (Fer (mouse)) | phosphorylation enrichment (c-Src) | phosphorylation enrichment (Hck) | phosphorylation enrichment (AncSZ) | phosphorylation enrichment (Fyn) | phosphorylation enrichment (FGFR3)
YQLPYYNMVPS [BMPR1A_Y458] | 5.08 | 1.73 | 11.4 | 3.96 | 13.1 | 0.802 | 2.52 | 2.58 | 10.4 | 8.84 | 5.67 | 5.1 | 3.28 | 2.75 | 3.36 | 10.5
YRNKPYISWPS [CDC42BPB_Y1638_S1633Y] | 1.29 | 1.64 | 1.87 | 0.401 | 0.394 | 0.635 | 0.461 | 0.45 | 0.697 | 0.449 | 0.394 | 0.522 | 0.606 | 0.547 | 0.41 | 0.46
YSGIYYKPESL [L2HGDH_Y103_H98Y] | 6.04 | 10.5 | 0.831 | 29.5 | 11 | 0.968 | 12.4 | 9.38 | 6.33 | 10.9 | 9.95 | 6.07 | 8.46 | 2.36 | 9.17 | 9.82
YYLGKYLQEVL [KLB_Y910] | 0.686 | 0.66 | 0.877 | 0.902 | 3.66 | 1.34 | 0.593 | 0.506 | 1.3 | 1.42 | 0.523 | 0.523 | 0.565 | 1.2 | 0.568 | 2.92

Source: the supplement of paper PMC10065799, “High-throughput profiling of sequence recognition by tyrosine kinases and SH2 domains using bacterial peptide display” (eLife, 2023)
